Publication PMC9482650, “Quantitative fragmentomics allow affinity mapping of interactomes” (Nature Communications, 2022)

T1: APBA2_1, Q99767
T1 sequence (Q99767 563-664, limits assumed, looked up): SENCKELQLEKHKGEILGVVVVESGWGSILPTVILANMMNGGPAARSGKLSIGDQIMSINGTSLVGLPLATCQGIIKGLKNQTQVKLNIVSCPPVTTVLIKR

T2: DLG3_1, Q92796
T2 sequence (Q92796 125-227, limits assumed, looked up): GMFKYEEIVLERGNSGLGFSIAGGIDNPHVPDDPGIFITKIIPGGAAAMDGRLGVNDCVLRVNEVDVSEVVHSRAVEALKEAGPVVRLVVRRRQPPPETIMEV

T3: DLG3_2, Q92796
T3 sequence (Q92796 221-321, limits assumed, looked up): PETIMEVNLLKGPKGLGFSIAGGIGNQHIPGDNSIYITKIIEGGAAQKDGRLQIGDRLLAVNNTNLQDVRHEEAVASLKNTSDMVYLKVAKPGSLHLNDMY

T4: DVL3, Q92997
T4 sequence (Q92997 244-331, limits assumed, looked up): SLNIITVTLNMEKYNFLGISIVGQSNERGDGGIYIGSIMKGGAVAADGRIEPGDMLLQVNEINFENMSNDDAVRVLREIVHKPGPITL

T5: FRMPD1, Q5SYB0
T5 sequence (Q5SYB0 52-145, limits assumed, looked up): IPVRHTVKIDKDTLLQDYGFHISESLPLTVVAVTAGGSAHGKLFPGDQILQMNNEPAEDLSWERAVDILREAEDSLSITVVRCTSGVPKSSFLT

T6: GRIP1_2, Q9Y3R0
T6 sequence (Q9Y3R0 145-248, limits assumed, looked up): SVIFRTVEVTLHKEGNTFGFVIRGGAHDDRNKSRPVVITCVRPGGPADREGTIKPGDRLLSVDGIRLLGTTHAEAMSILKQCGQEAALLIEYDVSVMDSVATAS

T7: LIN7A, O14910
T7 sequence (O14910 103-200, limits assumed, looked up): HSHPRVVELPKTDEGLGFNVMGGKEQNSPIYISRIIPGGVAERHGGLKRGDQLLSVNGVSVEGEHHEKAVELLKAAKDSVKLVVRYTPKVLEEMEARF

T8: LIN7B, Q9HAP6
T8 sequence (Q9HAP6 88-185, limits assumed, looked up): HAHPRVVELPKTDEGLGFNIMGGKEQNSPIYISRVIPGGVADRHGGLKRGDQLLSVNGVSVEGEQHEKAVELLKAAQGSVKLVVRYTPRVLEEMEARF

T9: MPP6, Q9NZW5
T9 sequence (Q9NZW5 125-219, limits assumed, looked up): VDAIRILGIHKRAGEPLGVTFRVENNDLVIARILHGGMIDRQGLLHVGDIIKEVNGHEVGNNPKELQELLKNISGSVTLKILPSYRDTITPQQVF

T10: PCLO, Q9Y6V0
T10 sequence (Q9Y6V0 4491-4600, limits assumed, looked up): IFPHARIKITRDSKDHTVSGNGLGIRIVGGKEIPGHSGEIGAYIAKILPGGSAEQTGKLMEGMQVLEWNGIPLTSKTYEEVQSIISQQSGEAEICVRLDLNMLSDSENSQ

T11: PDZRN3_1, Q9UPQ7
T11 sequence (Q9UPQ7 244-349, limits assumed, looked up): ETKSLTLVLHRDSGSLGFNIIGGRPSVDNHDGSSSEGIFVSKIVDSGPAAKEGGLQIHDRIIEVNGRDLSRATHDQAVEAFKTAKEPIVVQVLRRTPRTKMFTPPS

T12: SNTG1, Q9NSN8
T12 sequence (Q9NSN8 52-150, limits assumed, looked up): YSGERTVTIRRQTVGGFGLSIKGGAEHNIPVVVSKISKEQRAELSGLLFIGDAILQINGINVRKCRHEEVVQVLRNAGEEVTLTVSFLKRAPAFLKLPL


Columns and labels:
Assay in all cases: holdup assay
Parameters in all cases: key: below the threshold = too weak to quantify, mostly under pKd 3.1 to 4
Conditions in all cases: plain residues with an end cap or a label only (N-terminal biotin on a linker: ado-ado)
APBA2_1, Q99767 = molecular target: T1, APBA2_1, Q99767
ARHGEF12, Q9NZN5-2 = molecular target: ARHGEF12, Q9NZN5-2
DLG3_1, Q92796 = molecular target: T2, DLG3_1, Q92796
DLG3_2, Q92796 = molecular target: T3, DLG3_2, Q92796
DVL3, Q92997 = molecular target: T4, DVL3, Q92997
FRMPD1, Q5SYB0 = molecular target: T5, FRMPD1, Q5SYB0
FRMPD2_2, Q68DX3 = molecular target: FRMPD2_2, Q68DX3
GORASP2, Q9H8Y8 = molecular target: GORASP2, Q9H8Y8
GRID2IP_1, A4D2P6 = molecular target: GRID2IP_1, A4D2P6
GRIP1_2, Q9Y3R0 = molecular target: T6, GRIP1_2, Q9Y3R0
HTRA1, Q92743 = molecular target: HTRA1, Q92743
HTRA2, O43464 = molecular target: HTRA2, O43464
IL16_4, Q14005 = molecular target: IL16_4, Q14005
Inadl_8, Q8NI35 = molecular target: Inadl_8, Q8NI35
LAP2, Q96RT1 = molecular target: LAP2, Q96RT1
LIN7A, O14910 = molecular target: T7, LIN7A, O14910
LIN7B, Q9HAP6 = molecular target: T8, LIN7B, Q9HAP6
LNX1_3, Q8TBB1 = molecular target: LNX1_3, Q8TBB1
MPP6, Q9NZW5 = molecular target: T9, MPP6, Q9NZW5
NHERF4_1, Q86UT5-2 = molecular target: NHERF4_1, Q86UT5-2
PCLO, Q9Y6V0 = molecular target: T10, PCLO, Q9Y6V0
PDLIM1, O00151 = molecular target: PDLIM1, O00151
PDZRN3_1, Q9UPQ7 = molecular target: T11, PDZRN3_1, Q9UPQ7
SCRIB_3, Q14160 = molecular target: SCRIB_3, Q14160
SNTG1, Q9NSN8 = molecular target: T12, SNTG1, Q9NSN8
TJP1_3, Q07157 = molecular target: TJP1_3, Q07157
TJP1_3, Q07157, sequence (Q07157 416-512): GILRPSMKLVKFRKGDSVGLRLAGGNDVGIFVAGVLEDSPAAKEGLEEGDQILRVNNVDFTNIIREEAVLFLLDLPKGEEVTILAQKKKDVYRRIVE

HTRA2, O43464, sequence (O43464 355-458): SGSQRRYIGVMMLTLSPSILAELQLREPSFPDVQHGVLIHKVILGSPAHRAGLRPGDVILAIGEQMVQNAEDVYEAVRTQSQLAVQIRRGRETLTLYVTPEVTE
LNX1_3, Q8TBB1, sequence (Q8TBB1 500-596): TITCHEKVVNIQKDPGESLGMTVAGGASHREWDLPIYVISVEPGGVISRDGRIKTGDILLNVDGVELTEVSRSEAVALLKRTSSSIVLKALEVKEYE
GRID2IP_1, A4D2P6, sequence (A4D2P6 1-87): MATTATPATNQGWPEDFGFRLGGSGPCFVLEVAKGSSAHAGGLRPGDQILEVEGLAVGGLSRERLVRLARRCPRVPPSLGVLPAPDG
ARHGEF12, Q9NZN5-2, sequence (Q9NZN5 other isoform, or with tags, fused parts or gaps): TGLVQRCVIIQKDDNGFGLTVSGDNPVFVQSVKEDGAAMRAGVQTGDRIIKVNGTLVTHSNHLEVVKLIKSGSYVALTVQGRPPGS
FRMPD2_2, Q68DX3, sequence (Q68DX3 944-1038): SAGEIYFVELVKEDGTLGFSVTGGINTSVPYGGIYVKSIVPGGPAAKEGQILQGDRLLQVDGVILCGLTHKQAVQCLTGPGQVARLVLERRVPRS
HTRA1, Q92743, sequence (Q92743 360-477): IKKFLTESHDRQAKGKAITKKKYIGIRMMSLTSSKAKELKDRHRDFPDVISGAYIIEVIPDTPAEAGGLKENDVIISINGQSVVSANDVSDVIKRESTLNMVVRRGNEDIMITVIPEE
PDLIM1, O00151, sequence (O00151 1-87): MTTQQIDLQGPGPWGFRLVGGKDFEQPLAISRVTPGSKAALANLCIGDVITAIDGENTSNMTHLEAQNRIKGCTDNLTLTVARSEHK
SCRIB_3, Q14160, sequence (Q14160 999-1103): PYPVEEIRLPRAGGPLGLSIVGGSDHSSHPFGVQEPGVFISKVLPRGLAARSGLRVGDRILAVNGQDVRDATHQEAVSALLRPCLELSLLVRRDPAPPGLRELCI
NHERF4_1, Q86UT5-2, sequence (Q86UT5 other isoform, or with tags, fused parts or gaps): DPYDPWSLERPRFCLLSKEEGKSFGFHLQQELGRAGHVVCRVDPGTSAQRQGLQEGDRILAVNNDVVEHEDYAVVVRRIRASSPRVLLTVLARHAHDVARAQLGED
IL16_4, Q14005, sequence (Q14005 1229-1329): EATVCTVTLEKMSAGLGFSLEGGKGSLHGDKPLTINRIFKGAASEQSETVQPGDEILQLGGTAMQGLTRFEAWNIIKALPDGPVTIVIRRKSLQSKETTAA
Inadl_8, Q8NI35, sequence (Q8NI35 1425-1530): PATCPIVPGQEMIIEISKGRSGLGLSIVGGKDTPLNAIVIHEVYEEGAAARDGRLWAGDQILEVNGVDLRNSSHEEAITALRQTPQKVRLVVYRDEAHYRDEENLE
LAP2, Q96RT1, sequence (Q96RT1 other isoform, or with tags, fused parts or gaps): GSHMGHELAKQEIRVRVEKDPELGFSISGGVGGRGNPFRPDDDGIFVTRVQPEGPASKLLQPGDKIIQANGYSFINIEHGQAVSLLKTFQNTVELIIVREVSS

pKd (APBA2_1, Q99767)	pKd (ARHGEF12, Q9NZN5-2)	pKd (DLG3_1, Q92796)	pKd (DLG3_2, Q92796)	pKd (DVL3, Q92997)	pKd (FRMPD1, Q5SYB0)	pKd (FRMPD2_2, Q68DX3)	pKd (GORASP2, Q9H8Y8)	pKd (GRID2IP_1, A4D2P6)	pKd (GRIP1_2, Q9Y3R0)	pKd (HTRA1, Q92743)	pKd (HTRA2, O43464)	pKd (IL16_4, Q14005)	pKd (Inadl_8, Q8NI35)	pKd (LAP2, Q96RT1)	pKd (LIN7A, O14910)	pKd (LIN7B, Q9HAP6)	pKd (LNX1_3, Q8TBB1)	pKd (MPP6, Q9NZW5)	pKd (NHERF4_1, Q86UT5-2)	also measured	Binder
below the threshold	5.05	below the threshold	below the threshold	below the threshold	below the threshold	below the threshold	below the threshold	below the threshold	below the threshold	3.55	below the threshold	3.6	below the threshold	below the threshold	below the threshold	below the threshold	below the threshold	below the threshold	3.95	pKd (PCLO, Q9Y6V0): below the threshold; pKd (PDLIM1, O00151): below the threshold; pKd (PDZRN3_1, Q9UPQ7): 3.48; pKd (SCRIB_3, Q14160): 3.6; pKd (SNTG1, Q9NSN8): below the threshold; pKd (TJP1_3, Q07157): below the threshold	PSVGSKKTVL [REELD1, A0A1B0GV85]
below the threshold	below the threshold	below the threshold	4.19	below the threshold	below the threshold	below the threshold	below the threshold	below the threshold	below the threshold	below the threshold	below the threshold	below the threshold	below the threshold	below the threshold	below the threshold	3.72	below the threshold	below the threshold	below the threshold	pKd (PCLO, Q9Y6V0): below the threshold; pKd (PDLIM1, O00151): below the threshold; pKd (PDZRN3_1, Q9UPQ7): below the threshold; pKd (SCRIB_3, Q14160): below the threshold; pKd (SNTG1, Q9NSN8): below the threshold; pKd (TJP1_3, Q07157): below the threshold	DRIQSCLSDA [SBF1, O95248]
below the threshold	4.62	below the threshold	below the threshold	below the threshold	below the threshold	below the threshold	below the threshold	below the threshold	below the threshold	below the threshold	below the threshold	3.61	below the threshold	below the threshold	below the threshold	below the threshold	below the threshold	below the threshold	3.91	pKd (PCLO, Q9Y6V0): below the threshold; pKd (PDLIM1, O00151): below the threshold; pKd (PDZRN3_1, Q9UPQ7): below the threshold; pKd (SCRIB_3, Q14160): 3.73; pKd (SNTG1, Q9NSN8): below the threshold; pKd (TJP1_3, Q07157): below the threshold	LKDDELKTKL [SLCO1A2, P46721]
below the threshold	below the threshold	below the threshold	4.11	4.51	below the threshold	3.87	4.67	below the threshold	below the threshold	5.24	4.2	below the threshold	3.66	below the threshold	below the threshold	3.63	4.49	4.42	below the threshold	pKd (PCLO, Q9Y6V0): below the threshold; pKd (PDLIM1, O00151): below the threshold; pKd (PDZRN3_1, Q9UPQ7): below the threshold; pKd (SCRIB_3, Q14160): below the threshold; pKd (SNTG1, Q9NSN8): 3.51; pKd (TJP1_3, Q07157): below the threshold	SFISKKEWYV [NECTIN1, Q15223]
below the threshold	4.36	3.69	4.61	below the threshold	below the threshold	below the threshold	below the threshold	below the threshold	below the threshold	below the threshold	below the threshold	3.71	4.66	4.32	3.56	below the threshold	below the threshold	below the threshold	3.53	pKd (PCLO, Q9Y6V0): below the threshold; pKd (PDLIM1, O00151): below the threshold; pKd (PDZRN3_1, Q9UPQ7): 4.12; pKd (SCRIB_3, Q14160): 4.98; pKd (SNTG1, Q9NSN8): 4.12; pKd (TJP1_3, Q07157): below the threshold	DTKNYKQTSV [CRIPT, Q9P021]
